From US20090098106 come the findings set out here.

For series [1], the target named is T1, HC8 (α7) subunit of the human 20S proteasome, P25788.
T1 chain: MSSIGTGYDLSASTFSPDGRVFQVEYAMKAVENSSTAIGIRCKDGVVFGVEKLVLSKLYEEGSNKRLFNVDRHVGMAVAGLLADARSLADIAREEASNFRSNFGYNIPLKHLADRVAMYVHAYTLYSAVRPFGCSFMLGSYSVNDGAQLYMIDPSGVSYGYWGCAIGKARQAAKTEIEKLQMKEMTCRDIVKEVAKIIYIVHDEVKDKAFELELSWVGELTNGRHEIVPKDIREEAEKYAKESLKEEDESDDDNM

Series [2] has as its target T2, HC8 SS 243,250AA mutant, P25788.
T2 chain: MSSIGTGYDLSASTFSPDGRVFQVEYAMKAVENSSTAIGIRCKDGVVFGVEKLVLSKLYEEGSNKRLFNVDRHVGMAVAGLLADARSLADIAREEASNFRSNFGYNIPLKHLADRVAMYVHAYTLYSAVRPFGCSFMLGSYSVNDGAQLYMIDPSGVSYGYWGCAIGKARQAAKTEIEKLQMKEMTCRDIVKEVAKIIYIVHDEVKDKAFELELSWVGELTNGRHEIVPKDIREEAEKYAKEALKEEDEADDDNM

B1: NF-κB inducing kinase (NIK), human, full length (protein)
chain: MAVMEMACPGAPGSAVGQQKELPKPKEKTPPLGKKQSSVYKLEAVEKSPVFCGKWEILNDVITKGTAKEGSEAGPAAISIIAQAECENSQEFSPTFSERIFIAGSKQYSQSESLDQIPNNVAHATEGKMARVCWKGKRRSKARKKRKKKSSKSLAHAGVALAKPLPRTPEQESCTIPVQEDESPLGAPYVRNTPQFTKPLKEPGLGQLCFKQLGEGLRPALPRSELHKLISPLQCLNHVWKLHHPQDGGPLPLPTHPFPYSRLPHPFPFHPLQPWKPHPLESFLGKLACVDSQKPLPDPHLSKLACVDSPKPLPGPHLEPSCLSRGAHEKFSVEEYLVHALQGSVSSSQAHSLTSLAKTWAARGSRSREPSPKTEDNEGVLLTEKLKPVDYEYREEVHWATHQLRLGRGSFGEVHRMEDKQTGFQCAVKKVRLEVFRAEELMACAGLTSPRIVPLYGAVREGPWVNIFMELLEGGSLGQLVKEQGCLPEDRALYYLGQALEGLEYLHSRRILHGDVKADNVLLSSDGSHAALCDFGHAVCLQPDGLGKSLLTGDYIPGTETHMAPEVVLGRSCDAKVDVWSSCCMMLHMLNGCHPWTQFFRGPLCLKIASEPPPVREIPPSCAPLTAQAIQEGLRKEPIHRVSAAELGGKVNRALQQVGGLKSPWRGEYKEPRHPPPNQANYHQTLHAQPRELSPRAPGPRPAEETTGRAPKLQPPLPPEPPEPNKSPPLTLSKEESGMWEPLPLSSLEPAPARNPSSPERKATVPEQELQQLEIELFLNSLSQPFSLEEQEQILSCLSIDSLSLSDDSEKNPSKASQSSRDTLSSGVHSWSSQAEARSSSWNMVLARGRPTDTPSYFNGVKVQIQSLNGEHLHIREFHRVKVGDIATGISSQIPAAAFSLVTKDGQPVRYDMEVPDSGIDLQCTLAPDGSFAWSWRVKHGQLENRP
Take B1: the “in vitro kinase assay (phosphorylation of HC8 in the immunoprecipitate)” value is “HC8 was found to be a substrate for NIK phosphorylation in an in vitro kinase assay” in series [1]; “Replacement of two serine residues on HC8 (amino acids 243 and 250) by alanine completely abolished the NIK-induced phosphorylation of HC8” in series [2].
